# According to patent US20030152571A1:
# Experiments:
# [1] = molecular target: rabbit αvβ3 receptor on rabbit smooth muscle cells (rabbit); assay: cell-based or functional assay
# [2] = molecular target: human vitronectin receptor αvβ3 purified from human placenta (human) (UniProt P06756); assay: BIAcore; immobilized αvβ3, mAb in solution
# [3] = molecular target: human vitronectin receptor αvβ3 purified from human placenta (human) (UniProt P06756); assay: BIAcore; αvβ3 in a hybrid bilayer membrane on the sensor, mAb at 100, 25, 6 nM in triplicate
# [4] = molecular target: human vitronectin receptor αvβ3 purified from human placenta (human) (UniProt P06756); assay: competition: 1 ug/ml αvβ3 preincubated with unlabeled antibody, then binding of 1 ug/ml D12
# [5] = molecular target: human vitronectin receptor αvβ3 purified from human placenta (human) (UniProt P06756); assay: BIAcore, αvβ3 immobilized in a hybrid bilayer membrane on the sensor surface, mAb in solution
# [6] = molecular target: human vitronectin receptor αvβ3 purified from human placenta (human) (UniProt P06756); assay: ORIGEN competition: αvβ3-biotin (1 ug/ml) preincubated with unlabeled antibody, then 1 ug/ml Tag-LM609
substance,measurement,setting,value
murine monoclonal antibody LM609,Inhib (%) R-SMC (50 mg/ml),[1],43%
same,Kd,[2],3.8 nM
same,Kd,[3],0.46 nM
same,% Inhibition at 0.1 ug/ml,[4],3%
same,% Inhibition at 1 ug/ml,[4],29%
same,% Inhibition at 10 ug/ml,[4],68%
same,koff,[5],0.00051 s⁻¹
same,kon,[5],1.1e+06 M⁻¹ s⁻¹
same,% Inhibition at 0.1 ug/ml,[6],3%
same,% Inhibition at 1 ug/ml,[6],41%
same,% Inhibition at 10 ug/ml,[6],79%
